Measured values: article PMC3656102

What was measured:
[1] = molecular target: Bunyamwera virus Gc glycoprotein (Bunyamwera virus) (UniProt P04505); experiment: cryo-EM structure; electron cryo-tomography and sub-tomogram averaging of about 2,000 spikes on purified BUNV virions vitrified at pH 7.4; 3.0 nm resolution; three-fold symmetry seen without imposing it; validated by single particle averaging of spike side views
[2] = molecular target: Bunyamwera virus Gn–Gc glycoprotein heterodimer (protomer of the membrane-bound glycoprotein spike) (Bunyamwera virus); experiment: as above

Row | Substance | stoichiometry N [1] | stoichiometry N [2]
1 | Bunyamwera virus Gc glycoprotein (from UniProt P04505 478-1433) (natural protein) | 3 | 
2 | Bunyamwera virus Gn–Gc glycoprotein heterodimer (protomer of the membrane-bound glycoprotein spike) (complex) |  | 3
